The results in this text go back to patent US5795718, “Detection of complementary nucleotide sequences” (Boehringer Mannheim Corporation).

Data set [1] deals with T1, Nuclease P1 (UniProt P24289 P24289:1-270). Nature of the data set: cleavage_in_vitro; 183.54 to 467.93 mAU/min after digestion; 20 mM Na acetate pH 5.3, 4 mM Mg acetate, 37 C. As to conditions: tags: Bethesda Research Laboratories.
For another data set, the target named is T2, BamHI (UniProt P23940 P23940:1-213).
T2 sequence: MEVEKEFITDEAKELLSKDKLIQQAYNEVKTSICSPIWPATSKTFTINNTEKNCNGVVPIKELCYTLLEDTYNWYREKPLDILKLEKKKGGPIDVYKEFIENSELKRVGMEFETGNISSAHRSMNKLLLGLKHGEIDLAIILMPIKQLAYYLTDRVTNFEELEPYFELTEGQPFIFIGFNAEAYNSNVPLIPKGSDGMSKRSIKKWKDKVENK
In words: cleavage_in_vitro; complementation rate 47.16 to 114.07 mAU/min after BamHI; 37 C, 40 min. Particulars: chain copies: 2; 24 bp duplex within circular ssDNA. From the text:
Complementation Activity of ED4-BP-1 Before and After Hybridization To Target Nucleic Acid In order to determine whether an ED-nucleic acid conjugate would be useful as a probe for the complementation activity detection of specific nucleic acid sequences, a conjugate was made of ED4 and BP-1. BP-1 is a single-stranded DNA oligonucleotide 24 bases long (SEQ ID NO:1, FIG. 2). The BP-1 sequence is complementary to the multiple cloning site region of the single-stranded DNA from the bacteriophage M13 mp18 (SEQ ID NO:2, FIG. 3). The viral DNA which is about 7250 bases in length was used as a model target nucleic acid. 2.4×10^-10 mol of ED4-BP-1 conjugate was incubated with and without 2.4×10^-9 mol of M13 mp18 DNA at 55° C. for 10 minutes. EA (20 U/test) and CPRG (2.0 mg/ml final) were then added and the mixture incubated at 37° C. for 4 minutes. The rate of increase in A$574$ was measured per minute between 4 and 6 minutes. The rates of complementation were 80.73 and 47.16 mAU/min without and with target M13 DNA mp18 DNA, respectively. Therefore complementation was reduced approximately 42% (FIG. 4) by hybridization with the target nucleic acid.
ED4-BP-1 was hybridized to M13 mp18 for 10 min at 55° C. […] The complementation efficiency of the ED4-BP-1/M13 mp18 complex before and after digestion with Bam HI was measured. The rate of increase in A574 was measured per minute as described above. […]

Data set [2] deals with T1, Nuclease P1. In words: cleavage_in_vitro; almost 5-fold complementation increase; 20 mM Na acetate pH 5.3, 4 mM Mg acetate, 37 C, 16.5 min. Particulars: tags: Bethesda Research Laboratories. Here is the method: ED4-$T20$ was incubated at 37° C. for 16.5 minutes with various amounts of nuclease, P1 (Bethesda Research Laboratories), in 20 mM Na acetate pH 5.3, 4 mM Mg acetate. At the end of the incubation period, EA and the substrate, CPRG, were added in 150 mM Na phosphate, pH 7.2, 400 mM NaCl, 10 mM EGTA, 0.05% Tween 20 and 10 mM methionine. The rate of product formation was measured at 574 nm in mAU/min. The results (FIG. 1) indicate that the complementation activity of ED4-$T20$ can be increased by digestion of the conjugate with nuclease. An almost 5-fold increase in activity is seen between the use of no nuclease and highest concentration […] conditions.

T1 sequence (P24289 whole entry, one chain of several): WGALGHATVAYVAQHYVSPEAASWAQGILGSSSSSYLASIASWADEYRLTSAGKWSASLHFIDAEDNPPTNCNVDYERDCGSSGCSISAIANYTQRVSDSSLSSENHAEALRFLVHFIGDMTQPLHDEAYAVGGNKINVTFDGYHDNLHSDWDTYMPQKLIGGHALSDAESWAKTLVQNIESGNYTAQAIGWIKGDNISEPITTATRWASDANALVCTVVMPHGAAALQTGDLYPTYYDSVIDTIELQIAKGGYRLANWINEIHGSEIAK

GAGGATCCCCGGGTACCGAGCTCG (ssDNA, 5' amine linker SMCC-conjugated to ED4 peptide) [ED4-BP-1] displayed an activity in the data set with Nuclease P1 [1] of around 2.5 fold.

B1: ED4-BP-1/M13 mp18 hybrid (dsDNA)
DNA 1: GAGGATCCCCGGGTACCGAGCTCG
DNA 2: TGATTACGAATTCGAGCTCGGTACCCGGGGATCCTCTAGAGTCGA
modifications: 5' amine linker (3 or 6 carbons) SMCC-conjugated to ED4 peptide on BP-1
In the case of B1, the activity with BamHI came to 2.4 fold.
On to TTTTTTTTTTTTTTTTTTTT (ssDNA, 5' amine linker SMCC-conjugated to ED4 peptide) [ED4-T20], for which, in the data set with Nuclease P1 [2], the activity is around 5 fold.
